# According to patent US20240425837A1 (Novo Nordisk, published 2024):
# No end group written: not given here.
# T1: FX activation peptide 12-mer … (SEQ ID NO:727) (human)
# T1 sequence (peptide, C-terminally conjugated to biotin): LLDFNQTQPERG
# T2: FX activation peptide 12-mer SITWKPYDAADL (SEQ ID NO:707) (human)
# T2 peptide: SITWKPYDAADL-biotin
# T3: FX activation peptide 12-mer PYDAADLDPTEN (SEQ ID NO:712) (human)
# T3 peptide: PYDAADLDPTEN-biotin
# T4: FX activation peptide 12-mer PTENPFDLLDFN (SEQ ID NO:720) (human)
# T4 peptide: PTENPFDLLDFN-biotin
# T5: FX activation peptide 12-mer SVAQATSSSGEA (SEQ ID NO:693) (human)
# T5 peptide: SVAQATSSSGEA-biotin
# T6: FX activation peptide 12-mer PDSITWKPYDAA (SEQ ID NO:705) (human)
# T6 peptide: PDSITWKPYDAA-biotin
# T7: FX activation peptide 12-mer SSGEAPDSITWK (SEQ ID NO:700) (human)
# T7 peptide: SSGEAPDSITWK-biotin
# T8: FX activation peptide 12-mer DLLDFNQTQPER (SEQ ID NO:726) (human)
# T8 peptide: DLLDFNQTQPER-biotin
# T9: FX activation peptide 12-mer SGEAPDSITWKP (SEQ ID NO:701) (human)
# T9 peptide: SGEAPDSITWKP-biotin
# T10: FX activation peptide 12-mer AADLDPTENPFD (SEQ ID NO:715) (human)
# T10 peptide: AADLDPTENPFD-biotin
# T11: FX activation peptide 12-mer GEAPDSITWKPY (SEQ ID NO:702) (human)
# T11 peptide: GEAPDSITWKPY-biotin
# T12: FX activation peptide 12-mer DFNQTQPERGDN (SEQ ID NO:729) (human)
# T12 peptide: DFNQTQPERGDN-biotin
# T13: FX activation peptide 12-mer TSSSGEAPDSIT (SEQ ID NO:698) (human)
# T13 peptide: TSSSGEAPDSIT-biotin
# T14: FX activation peptide 12-mer ADLDPTENPFDL (SEQ ID NO:716) (human)
# T14 peptide: ADLDPTENPFDL-biotin
# T15: FX activation peptide 12-mer KPYDAADLDPTE (SEQ ID NO:711) (human)
# T15 peptide: KPYDAADLDPTE-biotin
# T16: FX activation peptide 12-mer QATSSSGEAPDS (SEQ ID NO:696) (human)
# T16 peptide: QATSSSGEAPDS-biotin
# T17: FX activation peptide 12-mer LDFNQTQPERGD (SEQ ID NO:728) (human)
# T17 peptide: LDFNQTQPERGD-biotin
# T18: FX activation peptide 12-mer AQATSSSGEAPD (SEQ ID NO:695) (human)
# T18 peptide: AQATSSSGEAPD-biotin
# T19: FX activation peptide 12-mer WKPYDAADLDPT (SEQ ID NO:710) (human)
# T19 peptide: WKPYDAADLDPT-biotin
# B1: Cmpd #1 (monovalent anti-FX VHH polypeptide, VHH-1.1) (VHH)
# VHH: EVQLVESGGGLVQPGGSLRLSCAASGSIGAFDAMGWYRQAPGKQRELVAGIMVSRGNTNYTDSVKGRFTISRDNAKNTVYLQMNSLKPEDTAVYYCKAVKRPGPGYLEVWGQGTLVTVSS
# notes: no protractor; FLAG-tagged in the peptide ELISA
# Assays:
# Experiment in all cases: ELISA, biotinylated 12-mer peptide on streptavidin, 2 ug/mL FLAG-tagged VHH, anti-FLAG-HRP
# [1] = molecular target: T1, FX activation peptide 12-mer … (SEQ ID NO:727) (human)
# [2] = molecular target: T2, FX activation peptide 12-mer …
# Experimental: (§1) To determine whether the binding epitope of the anti-FX VHH polypeptide designated “cmpd #1” are located inside the activation peptide (AP) of human FX (SEQ ID NO:2), an ELISA assay was setup. 41 unique 12-mer peptide fragments spanning the 52 residues of the activation peptide with one amino acid spacing were immobilized in microtiter plate wells followed by incubation with the VHH polypeptide to be tested, and detection of bound ligand was performed by addition of a secondary HRP-labelled antibody.
# (§2) The peptides were C-terminally conjugated to biotin and 50 μL of 1 μg/mL peptide solution was used for immobilization in discrete wells of the microtiter plate which was pre-coated with 1 μg/mL streptavidin. Each well was washed with washing buffer (10 mM Tris, 150 mM NaCl, 2.5 mM CaCl₂, 0.05% Tween 20, pH 8.60) followed by addition of 50 μL of 2 μg/mL FLAG-tagged anti-FX VHH polypeptide or IgG antibody to be tested. After 1 hour non-bound VHH polypeptide was washed off using washing buffer.
# (§3) Bound anti-FX activation peptide ligand was detected by first binding a HRP-labelled secondary antibody (for FLAG-tagged VHH polypeptide: Anti-FLAG mAb M2-Peroxidase (HRP) (Sigma Aldrich, US) for 1 hour, and then adding 100 μL TMB-1 ELISA substrate (Kem-En-Tec Diagnostics, Denmark).
# [3] = molecular target: T3, FX activation peptide 12-mer …
# Experimental: as §1, §2, §3
# [4] = molecular target: T4, FX activation peptide 12-mer …
# Experimental: as §1, §2, §3
# [5] = molecular target: T5, FX activation peptide 12-mer …
# Experimental: as §1, §2, §3
# [6] = molecular target: T6, FX activation peptide 12-mer …
# Experimental: as §1, §2, §3
# [7] = molecular target: T7, FX activation peptide 12-mer …
# Experimental: as §1, §2, §3
# [8] = molecular target: T8, FX activation peptide 12-mer …
# Experimental: as §1, §2, §3
# [9] = molecular target: T9, FX activation peptide 12-mer …
# Experimental: as §1, §2, §3
# [10] = molecular target: T10, FX activation peptide 12-mer …
# Experimental: as §1, §2, §3
# [11] = molecular target: T11, FX activation peptide 12-mer …
# Experimental: as §1, §2, §3
# [12] = molecular target: T12, FX activation peptide 12-mer …
# Experimental: as §1, §2, §3
# [13] = molecular target: T13, FX activation peptide 12-mer …
# Experimental: as §1, §2, §3
# [14] = molecular target: T14, FX activation peptide 12-mer …
# Experimental: as §1, §2, §3
# [15] = molecular target: T15, FX activation peptide 12-mer …
# Experimental: as §1, §2, §3
# [16] = molecular target: T16, FX activation peptide 12-mer …
# Experimental: as §1, §2, §3
# [17] = molecular target: T17, FX activation peptide 12-mer …
# Experimental: as §1, §2, §3
# [18] = molecular target: T18, FX activation peptide 12-mer …
# Experimental: as §1, §2, §3
# [19] = molecular target: T19, FX activation peptide 12-mer …
# Experimental: as §1, §2, §3
binder,measurement,setting,value
B1,ELISA signal normalized relative to the background signal (fold of background),[1],1.88
same,ELISA signal normalized relative to the background signal,[2],1.08 fold of background
same,ELISA signal normalized relative to the background signal,[3],0.83 fold of background
same,ELISA signal normalized relative to the background signal,[4],4.58 fold of background
same,ELISA signal normalized relative to the background signal,[5],0.96 fold of background
same,ELISA signal normalized relative to the background signal,[6],1.05 fold of background
same,ELISA signal normalized relative to the background signal,[7],0.88 fold of background
same,ELISA signal normalized relative to the background signal,[8],3.08 fold of background
same,ELISA signal normalized relative to the background signal,[9],0.88 fold of background
same,ELISA signal normalized relative to the background signal,[10],0.88 fold of background
same,ELISA signal normalized relative to the background signal,[11],0.93 fold of background
same,ELISA signal normalized relative to the background signal,[12],0.94 fold of background
same,ELISA signal normalized relative to the background signal,[13],0.77 fold of background
same,ELISA signal normalized relative to the background signal,[14],0.91 fold of background
same,ELISA signal normalized relative to the background signal,[15],0.8 fold of background
same,ELISA signal normalized relative to the background signal,[16],0.96 fold of background
same,ELISA signal normalized relative to the background signal,[17],0.97 fold of background
same,ELISA signal normalized relative to the background signal,[18],0.97 fold of background
same,ELISA signal normalized relative to the background signal,[19],0.89 fold of background
